Reference: patent US20170065702A1
Substitutions are numbered along the chain they refer to. Read-outs that look alike come from different tables or passages of the source.

B1: CAN30G2 (antibody, V domains shown)
VH: DVQLVESGGGLVQPGGSRKLSCTASGFTFSSFGMHWVRQAPEKGLEWVAYISSGSSKIYYADTVKGRFTISRDNPKNTLFLQMTSLRSEDTAMYYCARGWYEGAWFAYWGQGTLVTVSA
VL: DVLMTQTPLSLPVSLGDQASISCRSSQSIVHSNGDTYLEWYLQKPGQSPKLLIYKVSNRFSGVPDRFSGSGSGTDFTLRISRVEAEDLGVYYCFQGSHFPWTFGGGTKLEIK
B2: CAN30G4 (antibody, V domains shown)
VH: EVKLVESGGGLVKSGGSLKLSCAVSGFTFSTYAMSWVRQIPEKRLEWVATISNGGSYIYYSDSVKGRFTISRDNAKNTLYLQMSSLRSEDTAMYYCARHRESYRYDWFAYWGQGTLVTVSA
VL: B1 VL with S28N, N33D, D35N, V56F, R79K, F99V, W101P, G105A, I111L
B3: CAN30G3 (antibody, V domains shown)
VH: QVQLKESGPGLVAPSQSLSITCTVSGFSLTDYGITWIRQPPGKGLEWLGVIWGGGSAYYNLVLKSRLSISKDNSKSQVFLKMNSLQTDDTAMYYCAKHRTLITTAMDYWGQGISVTVSS
VL: B1 VL with S28N, D35N, P45S, R79K
B4: CAN30G5 (antibody, V domains shown)
VH: EVQLVESGGGLVQPKGSLKLSCAASGFAFNSYAMHWVCQAPGKGLEWVARIRIKSGNYATSYAGSVTDRFTVSRDDSQNLFYLQMNNLKTEDTAMYYCVREWEGAMDYWGQGTSVTVSS
VL: DIVLTQSPLSLPVSLGDQASISCRSSQSLVHSNGNTYLHWYLQKPGQSPNLLIYKVSNRFSGVPDRFSGSGSGTDFTLKISRVEAEDLGVYFCSQSTHVPWTFGGGTKLEIK
B5: CAN54G2 (antibody, V domains shown)
VH: QVQLQQSGTELVRPGTSVKISCKASGYDFTNFWLGWIKQRPGHGLEWIGDIYPGGDNTYYNEKFKGKVTLTADKSSNTAYMQFSSLTSEDSAVYFCFMILYTLDYWGQGTSVTVSS
VL: not shown

Assays:
[1] = molecular target: Marburg Ravn GP pin peptide … (Marburg virus, Ravn strain); test: pin peptide ELISA, pin D5, supernatant diluted 1/5, read at 1 hour
[2] = molecular target: Marburg Ravn GP pin peptide … (Marburg virus, Ravn strain); test: pin peptide ELISA, pin D4, supernatant diluted 1/5, read at 1 hour
[3] = molecular target: Marburg Ravn GP pin peptide … (Marburg virus, Ravn strain)
[4] = molecular target: Marburg Ravn GP pin peptide … (Marburg virus, Ravn strain); test: pin peptide ELISA, pin D6, supernatant diluted 1/5, read at 1 hour
[5] = molecular target: Marburg Ravn GP pin peptide … (Marburg virus, Ravn strain); test: pin peptide ELISA, pin printed as D6 beside … (SEQ ID NO: 195), read at 1 hour

Binder	Absorbance (1 hour) [1] [absorbance]	Absorbance (1 hour) [2] [absorbance]	Absorbance (1 hour) [3] [absorbance]	Absorbance (1 hour) [4] [absorbance]	Absorbance (1 hour) [5] [absorbance]
B1	0.373	0.848	–	–	–
B2	1.97	–	> 3.9	–	–
B3	1.84	–	–	1.12	–
B4	–	0.631	> 3.9	–	–
B5	–	–	–	–	1.85
